In patent US20050008616A1, “Recombinant human interferon-beta-1b polypeptides” (Schering Aktiengesellschaft, priority 2003, published 2005):
Values joined by “and” are separate entries in the source; they are usually repeats but may differ in a detail not shown here. Equal values may be shown once.

Assays:
[1] = molecular target: T1, fibroblast-derived native IFN-β (Homo sapiens, UniProt P01574); conditions: partially purified native interferon; cited from earlier work
T1 construct: host or cells: human fibroblasts (natural producer)

Soybean Agglutinun = molecular target: T2, Soybean Agglutinun (soybean, UniProt P05046 33-285, biotinylated (sites not given)); assay: dot blot, probed with biotinylated lectin
T2 construct: Bought biotinylated lectin; also called SBA
Method: Finally, IFN-β-1b lot A was tested for binding to biotinylated lectins from Vector Laboratories.

MxA gene = MxA gene induction assay (ICLA); type: cell-based, human
Source text: Based on the specific induction of the MxA gene by type I IFNs in cultured human cells (Von Wussow, P. et al. (1990) Eur. J. Immunol. 20:2015-2019; and Simon, A. et al. (1991) J. Interferon Res. 11:215-219), an immunochemiluminometric (“ICLA”) assay was developed by Files, J. G. et al. (1998) J. Interferon Res. 18:1019-1024. The ICLA assay, which is based on the procedure of Oh, S. K. et al. (1994) J. Immunol. Meth. 176:79-91, detects MXa protein in cell lysates using two non-competing anti-MxA monoclonal antibodies, one of which is conjugated with acridinium ester, which is detected in a luminometer. The MxA gene induction ICLA assay procedure used herein is described in detail in Files, J. G. et al. (1998) supra.

[2] = system: human amnionic cell line WISH infected with VSV; type: cell-based, vesicular stomatitis virus; conditions: WISH cells infected with VSV, viral plaque reduction
EAE = conditions: rodent EAE; cited from earlier work
[3] = IFN-β specific activity, assay not stated

T1 sequence (P01574 22-187): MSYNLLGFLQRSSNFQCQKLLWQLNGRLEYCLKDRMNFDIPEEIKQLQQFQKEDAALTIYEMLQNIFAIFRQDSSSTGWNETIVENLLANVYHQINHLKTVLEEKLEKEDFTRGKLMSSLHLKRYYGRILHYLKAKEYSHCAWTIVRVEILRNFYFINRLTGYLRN
T2 sequence (P05046 33-285 limits assumed): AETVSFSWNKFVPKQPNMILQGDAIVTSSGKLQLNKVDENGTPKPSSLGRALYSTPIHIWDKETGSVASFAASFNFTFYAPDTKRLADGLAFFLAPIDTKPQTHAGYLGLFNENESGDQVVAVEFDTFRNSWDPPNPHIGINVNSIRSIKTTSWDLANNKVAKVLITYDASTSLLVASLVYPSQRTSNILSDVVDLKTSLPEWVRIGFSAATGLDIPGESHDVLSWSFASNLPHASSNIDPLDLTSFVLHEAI

CC(=O)N[C@H]1[C@H]([C@H](O)[C@H](O)CO)OC(O)(C(=O)O)C[C@@H]1O (stereo partly shown) [sialic acid, N-acetylneuraminic acid]
effect on antiviral activity of native IFN-β [1]: not

(N-acetylneuraminosyl)galactosylglucosylceramide [GM3]
effect on antiviral activity of native IFN-β [1]: abolished

B1: peak IFN-β-1b (fraction 5) from the Con A Sepharose column (ligand)
chain: MSYNLLGFLQRSSNFQSQKLLWQLNGRLEYCLKDRMNFDIPEEIKQLQQFQKEDAALTIYEMLQNIFAIFRQDSSSTGWNETIVENLLANVYHQINHLKTVLEEKLEKEDFTRGKLMSSLHLKRYYGRILHYLKAKEYSHCAWTIVRVEILRNFYFINRLTGYLRN
notes: Same polypeptide as IFN-β-1b lot A, after Con A Sepharose chromatography removed most of the non-covalently attached carbohydrate; The note on Met1 for m1 applies here too; also called IFN-β-1b lot A further purified by Con A Sepharose column chromatography
binding result (Soybean Agglutinun): no binding

B2: IFN-β-1aSER17: IFN-β-1a in which Cys17 is replaced by Ser17, expressed in CHO cells, purified by affinity chromatography (protein, UniProt P01574 22-187, looked up, variant C17S)
Interferon beta: MSYNLLGFLQRSSNFQSQKLLWQLNGRLEYCLKDRMNFDIPEEIKQLQQFQKEDAALTIYEMLQNIFAIFRQDSSSTGWNETIVENLLANVYHQINHLKTVLEEKLEKEDFTRGKLMSSLHLKRYYGRILHYLKAKEYSHCAWTIVRVEILRNFYFINRLTGYLRN
decrease in specific activity (MxA gene; PNGase F-mediated deglycosylation, non-reducing or reducing conditions, FIG. 2B): 30-35%
effect on specific activity of overnight incubation alone (MxA gene; overnight (18 hours) incubation, FIG. 2B): not adversely affected
specific activity (MxA gene; product label specific activity of reconstituted IFN-β-1b/Betaseron® as IFN standard, FIG. 2A): 1.3 to 2.4×10^8 IU/mg
reduction in specific activity (MxA gene; reduction in the presence of SDS followed by spontaneous reoxidation, FIG. 2B): ~20%

B3: peak IFN-β-1b (fraction 5): IFN-β-1b lot A further purified by Con A Sepharose column chromatography, peak fraction 5, carbohydrates largely removed (protein, UniProt P01574 22-187, looked up, variant C17S)
Interferon beta: MSYNLLGFLQRSSNFQSQKLLWQLNGRLEYCLKDRMNFDIPEEIKQLQQFQKEDAALTIYEMLQNIFAIFRQDSSSTGWNETIVENLLANVYHQINHLKTVLEEKLEKEDFTRGKLMSSLHLKRYYGRILHYLKAKEYSHCAWTIVRVEILRNFYFINRLTGYLRN
modifications: interferon beta-1b; deglycosylated fraction
notes: IFN-β-1b lot A further purified by Con A Sepharose column chromatography, peak fraction 5, carbohydrates largely removed
specific activity [2]: 3.6×10^7 IU/mg

B4: IFN-β-1b: recombinant human IFN-β expressed in E. coli with Cys17 to Ser17 substitution, 165 amino acids, not glycosylated (SEQ ID NO: 2) (protein, listed as Homo sapiens)
chain: MSYNLLGFLQRSSNFQSQKLLWQLNGRLEYCLKDRMNFDIPEEIKQLQQFQKEDAALTIYEMLQNIFAIFRQDSSSTGWNETIVENLLANVYHQINHLKTVLEEKLEKEDFTRGKLMSSLHLKRYYGRILHYLKAKEYSHCAWTIVRVEILRNFYFINRLTGYLRN
in vivo efficacy in EAE models (EAE): shows in vivo efficacy
specific activity [3]: 2 to 3×10^7 IU/mg and ~3×10^7 IU/mg
